Like-named read-outs stand apart in the source and are kept apart here.
Columns and labels:
Assay in all cases: SEC; Superdex 200 HR 10/30, cold 1x PBS pH 7.2; native size of each protein from its own elution volume against size standards, dark- or light-incubated (same result in both); PmSB-LOV C53A run only in the mixture with PmlR2
[1] = molecular target: PmSB-LOV (Pseudomonas mendocina Sensory box-LOV), wild-type tag-free recombinant protein (Pseudomonas mendocina NBRC 14162)
[2] = molecular target: PmSB-LOV (Pseudomonas mendocina Sensory box-LOV), wild-type tag-free recombinant protein (Pseudomonas mendocina NBRC 14162); remark: listed apart in the source
[3] = molecular target: PmlR2 (Pseudomonas mendocina light-inducible transcriptional regulator), tag-free recombinant protein (Pseudomonas mendocina NBRC 14162)
[4] = molecular target: PmlR2-N (1-113 aa), tag-free recombinant protein containing only the HTH DNA-binding domain (Pseudomonas mendocina NBRC 14162)

## PmSB-LOV (Pseudomonas mendocina Sensory box-LOV), wild-type tag-free recombinant protein (natural protein)
[1]
  stoichiometry N: 3
[2]
  stoichiometry N: 2

## PmlR2 (Pseudomonas mendocina light-inducible transcriptional regulator), tag-free recombinant protein (natural protein)
[3]
  stoichiometry N: 6

## PmlR2-N (1-113 aa), tag-free recombinant protein containing only the HTH DNA-binding domain (domain or fragment)
[4]
  stoichiometry N: 2

Source: article PMC9758184
